Source: the RNAGym collection of RNA variant scans (doi:10.1073/pnas.2313332121)
This sample holds only a part of the variants without activity.

B1: TPR 5TU (parent)
chain: GGAUCUUCUCGAUCUAACAAAAAAGACAAAUCUGCCACAAAGCUUGAGAGCAUCUUCGGAUGCAGAGGCGGCAGCCUUCGGUGGCGCGAUAGCGCCAACGUUCUCAACUAUGACACGCAAAACGCGUGCUCCGUUGAAUGGAGUUUAUCAUG

Variants of: B1
Assay: polymerase ribozyme fitness, log enrichment relative to wild type (log ratio); higher = more active; in vitro selection for triplet polymerase activity
Summary of the method: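 Fitness is a logarithmic measure of how a genotype enriched relative to the wild type, with replicate averages weighted by inverse variance. The logarithm uses base 2, and enrichment came from Illumina sequencing of input and output libraries. Those libraries were PCR-built, transcribed mutants of each subunit of a heterodimeric triplet polymerase ribozyme, passed through one triplicate in vitro selection round that included frozen incubation at −7 °C, gel excision of extended constructs and streptavidin-bead capture. Genotypes were kept only if they had ≥10 input reads and ≥1 read per output.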

Variant	polymerase ribozyme fitness (log ratio)
GGAUCUUCUCGAUCUAACAAAAAAGACAAAUCUGCCACAAAGCUUGAGAGCAUCUUCGGAUGCAGAGGCGGCAGCCUUCGGUGGCGCGAUAGCGCGAACGUUCUCAACUAUGACACGCAAAACGCGUGCUCCGUUGAAUGGACUUUAUCAUG [C96G G143C]	-2.86
GGAUCUUCUCGAUCUAACAAAAAAGACAAAUCUGCCACAAAGCUUGAGAGCAUCUUCGGAUGCAGAGGCGGCAGCCUUCGGUGGCGCGAUAGCGCGAACGUUCUCAACUAUGACACGCAAAACGGGUGCGCAGUUGAAUGGAGUUUAUCAUG [C96G C125G U130G C132A]	≤ -4.2
GGAUCUUCUCGAUCUAACAAAAAAGACAAAUCUGCCACAAAGCUUGAGAGCAUCUUCGGAUGCAGAGGCGGCAGCCUUCGGUGGCGCGAUAGCGCGAACGUUCUCAACGAUGACACGCAAAACCCGUGCUCCGUUGAAUGGAGUUUAUCAUG [C96G U109G G124C]	-2.62
GGAUCUUCUCGAUCUAACAAAAAAGACAAAUCUGCCACAAAGCUUGAGAGCAUCUUCGGAUGCAGAGGCGGCAGCCUUCGGUGGCGCGAUAGCGCGAACUUUCUCAACUAUGACACGCAAAACGCGUGCUCCGUUGAAUGGAGUUUAUCAUG [C96G G100U]	-3.95
GGAUCUUCUCGAUCUAACAAAAAAGACAAAUCUGCCACAAAGCUUGAGAGCAUCUUCGGAUGCAGAGGCGGCAGCCUUCGGUGGCGCGAUAGCGCUAACGUUCUCAACUUUGACACGCAAAACGCGUGCUCCGUUGAAUGGAGUUUAUCAUG [C96U A110U]	-3.6
GGAUCUUCUCGAUCUAACAAAAAAGACAAAUCUGCCACAAAGCUUGAGAGCAUCUUCGGAUGCAGAGGCGGCAGCCUUCGGUGGCGCGAUAGCGCUAACGUUCUCAACUAUGACACGCUAAACGCGUGCUCCGUUGAAUGGAGUUUAUCAUC [C96U A119U G152C]	-3.13
GGAUCUUCUCGAUCUAACAAAAAAGACAAAUCUGCCACAAAGCUUGAGAGCAUCUUCGGAUGCAGAGGCGGCAGCCUUCGGUGGCGCGAUAGCGCGAACGUUCUGAACUAUGACACGCAAAACGCGUGCUCCGUUGAAUGGAAUUUAUCAUG [C96G C105G G143A]	-3.02
GGAUCUUCUCGAUCUAACAAAAAAGACAAAUCUGCCACAAAGCUUGAGAGCAUCUUCGGAUGCAGAGGCGGCAGCCUUCGGUGGCGCGAUAGCGCGAACGUUCUCAAUUAUGACACGCAAAACGCGUGCUCCGUUGAAUGGAGUUUAUCAUG [C96G C108U]	-2.5
GGAUCUUCUCGAUCUAACAAAAAAGACAAAUCUGCCACAAAGCUUGAGAGCAUCUUCGGAUGCAGAGGCGGCAGCCUUCGGUGGCGCGAUAGCGCUCACGUUCUCAACUAUGACACGCAAAACGCGUGCUCCGUUGAAUGGAGUUUAUCAUG [C96U A97C]	0.0607
GGAUCUUCUCGAUCUAACAAAAAAGACAAAUCUGCCACAAAGCUUGAGAGCAUCUUCGGAUGCAGAGGCGGCAGCCUUCGGUGGCGCGAUAGCGCUAACGUUCUCAACUAUGACACGCCAAACGCGUGCUCCGUUGAAUGAAGUUUAUCAUG [C96U A119C G141A]	0.872
GGAUCUUCUCGAUCUAACAAAAAAGACAAAUCUGCCACAAAGCUUGAGAGCAUCUUCGGAUGCAGAGGCGGCAGCCUUCGGUGGCGCGAUAGCGCUAACGUUCUCAACUAUGACACGCAAAACGCGUGCUCCGUUGAAUGGAGUUUAUCAUG [C96U]	-0.258
GGAUCUUCUCGAUCUAACAAAAAAGACAAAUCUGCCACAAAGCUUGAGAGCAUCUUCGGAUGCAGAGGCGGCAGCCUUCGGUGGCGCGAUAGCGCUAACGUUCUCAACUAUGACACGCAAAACGCGUGCUCCGUUGAAUGGCGUUUAUCAUG [C96U A142C]	-1.15
GGAUCUUCUCGAUCUAACAAAAAAGACAAAUCUGCCACAAAGCUUGAGAGCAUCUUCGGAUGCAGAGGCGGCAGCCUUCGGUGGCGCGAUAGCGCUAACGUUCUCAACUAUGACACGCAAAACGCGUGCUCCGUUGAAUGGGGUUUAUCAUG [C96U A142G]	-1.18
GGAUCUUCUCGAUCUAACAAAAAAGACAAAUCUGCCACAAAGCUUGAGAGCAUCUUCGGAUGCAGAGGCGGCAGCCUUCGGUGGCGCGAUAGCGCGAACGUUCUGAACUAUGACACGCAAAACGCGUGCUCCGUUGAAUGGAGUUUAUCAUG [C96G C105G]	-1.92
GGAUCUUCUCGAUCUAACAAAAAAGACAAAUCUGCCACAAAGCUUGAGAGCAUCUUCGGAUGCAGAGGCGGCAGCCUUCGGUGGCGCGAUAGCGCUAACGUUCUCAUCUAUGACACGCAAAACGCGUGCUCCGUUGAAUGGAGUUUAUCAUG [C96U A107U]	-3.35
GGAUCUUCUCGAUCUAACAAAAAAGACAAAUCUGCCACAAAGCUUGAGAGCAUCUUCGGAUGCAGAGGCGGCAGCCUUCGGUGGCGCGAUAGCGCUAACGUUCUCACCUAUGACACGCAAAACGCGUGCUCCGUUGAAUGGAGUUUAUCAUG [C96U A107C]	-3.14
GGAUCUUCUCGAUCUAACAAAAAAGACAAAUCUGCCACAAAGCUUGAGAGCAUCUUCGGAUGCAGAGGCGGCAGCCUUCGGUGGCGCGAUAGCGCGAACGUGCUCAACUAUGACACGCAAAACGCGUGCUCCGUUGAAUGGAGUUUAUCAUG [C96G U102G]	-3.26
GGAUCUUCUCGAUCUAACAAAAAAGACAAAUCUGCCACAAAGCUUGAGAGCAUCUUCGGAUGCAGAGGCGGCAGCCUUCGGUGGCGCGAUAGCGCUAACGUUCUCAACUAUGACACGCAAAACGCGUGCUCCGUUGAUUGGAGUUUAUCAUG [C96U A138U]	≤ -4.2
GGAUCUUCUCGAUCUAACAAAAAAGACAAAUCUGCCACAAAGCUUGAGAGCAUCUUCGGAUGCAGAGGCGGCAGCCUUCGGUGGCGCGAUAGCGCUAACGUUCUCAACUAUGACGCGCAAAACGCGUGCUCCGUUUAAUGGGGUUUAUCAUG [C96U A115G G136U A142G]	-3.69

Variant	polymerase ribozyme fitness (log ratio)
GGAUCUUCUCGAUCUAACAAAAAAGACAAAUCUGCCACAAAGCUUGAGAGCAUCUUCGGAUGCAGAGGCGGCAGCCUUCGGUGGCGCGAUAGCGCGAACGUUUUCAACUAUGACACGCAAAACGCGUGCUCCGUUGAAUGGAGUUUAUCAUG [C96G C103U]	-0.445
GGAUCUUCUCGAUCUAACAAAAAAGACAAAUCUGCCACAAAGCUUGAGAGCAUCUUCGGAUGCAGAGGCGGCAGCCUUCGGUGGCGCGAUAGCGCGAACGUUCUUAACUAUGACAGGCUAAACGCGUGCUCUGUUGAAUGGAGUUUAUCAUG [C96G C105U C116G A119U C132U]	-1.57
GGAUCUUCUCGAUCUAACAAAAAAGACAAAUCUGCCACAAAGCUUGAGAGCAUCUUCGGAUGCAGAGGCGGCAGCCUUCGGUGGCGCGAUAGCGCUAACGUUCUCAACUAUGUCACGCAAAACUCGUGCUCCGUUGAAUGGAGUUUAUCAUG [C96U A113U G124U]	-2.41
GGAUCUUCUCGAUCUAACAAAAAAGACAAAUCUGCCACAAAGCUUGAGAGCAUCUUCGGAUGCAGAGGCGGCAGCCUUCGGUGGCGCGAUAGCGCUAACGUUCUCAACUAUGACUCGCAAAACGCGUGCUCCGUUGAAUGGAGUUUAUCAUG [C96U A115U]	-2.64
GGAUCUUCUCGAUCUAACAAAAAAGACAAAUCUGCCACAAAGCUUGAGAGCAUCUUCGGAUGCAGAGGCGGCAGCCUUCGGUGGCGCGAUAGCGCUAACGUUCUCAACUAUGGCACGCAAAACGCGUGCUCCGUUCAAUGGAGUUUAUCAUG [C96U A113G G136C]	-3.93
GGAUCUUCUCGAUCUAACAAAAAAGACAAAUCUGCCACAAAGCUUGAGAGCAUCUUCGGAUGCAGAGGCGGCAGCCUUCGGUGGCGCGAUAGCGCGAACGUUCUCAAAUAUGACACGCAAAAGGCGUGCUCCGUUGAAUGGAGUUUAUCAUG [C96G C108A C123G]	-3.69
GGAUCUUCUCGAUCUAACAAAAAAGACAAAUCUGCCACAAAGCUUGAGAGCAUCUUCGGAUGCAGAGGCGGCAGCCUUCGGUGGCGCGAUAGCGCUAACGUUCUCAGCUAUGACACACAAAACGCGUGCUCCGUUGAAUGGAGUUUAUCAUG [C96U A107G G117A]	≤ -4.2
GGAUCUUCUCGAUCUAACAAAAAAGACAAAUCUGCCACAAAGCUUGAGAGCAUCUUCGGAUGCAGAGGCGGCAGCCUUCGGUGGCGCGAUAGCGCUGACGUUCUCAACUAUGACACGCAAAACACGUGCUCCGUUGAAUGGAGUUUAUAAUG [C96U A97G G124A C149A]	-4.08
GGAUCUUCUCGAUCUAACAAAAAAGACAAAUCUGCCACAAAGCUUGAGAGCAUCUUCGGAUGCAGAGGCGGCAGCCUUCGGUGGCGCGAUAGCGCGAACGUUCUCAACUAUGACACGCAAAACGCGUGCUCCGUUGAAUGCAGUUUAUCAUG [C96G G141C]	-0.919
GGAUCUUCUCGAUCUAACAAAAAAGACAAAUCUGCCACAAAGCUUGAGAGCAUCUUCGGAUGCAGAGGCGGCAGCCUUCGGUGGCGCGAUAGCGCGAACGUUCUCAACUAUCACACGCAAAACGCGUGCUCCGUUGAAUGGAGUUUAUCAUG [C96G G112C]	-3.95
GGAUCUUCUCGAUCUAACAAAAAAGACAAAUCUGCCACAAAGCUUGAGAGCAUCUUCGGAUGCAGAGGCGGCAGCCUUCGGUGGCGCGAUAGCGCGAACGUUCUCAACUAUGACACGCAAAACGCGUGCUCCGGUGAAUGGAGUUUAUCAUG [C96G U134G]	-1.64
GGAUCUUCUCGAUCUAACAAAAAAGACAAAUCUGCCACAAAGCUUGAGAGCAUCUUCGGAUGCAGAGGCGGCAGCCUUCGGUGGCGCGAUAGCGCGAACGUCCUCAACUAUGACACGCAAGACGCGUGCUCCGUUGAAUGAAGUUUAUCGUG [C96G U102C A121G G141A A150G]	-4.15
GGAUCUUCUCGAUCUAACAAAAAAGACAAAUCUGCCACAAAGCUUGAGAGCAUCUUCGGAUGCAGAGGCGGCAGCCUUCGGUGGCGCGAUAGCGCGAAGGUUCUCAACUAUGACAAGCAAAACGCGUGCUCCGUUGAAUGGAGUUUCUCAUG [C96G C99G C116A A147C]	≤ -4.2
GGAUCUUCUCGAUCUAACAAAAAAGACAAAUCUGCCACAAAGCUUGAGAGCAUCUUCGGAUGCAGAGGCGGCAGCCUUCGGUGGCGCGAUAGCGCGAACGUUCUCAACUAUGACACGCAAAACGCGUGCUACGUUGAAUGGAGUUUAUCAUG [C96G C131A]	-2.35
GGAUCUUCUCGAUCUAACAAAAAAGACAAAUCUGCCACAAAGCUUGAGAGCAUCUUCGGAUGCAGAGGCGGCAGCCUUCGGUGGCGCGAUAGCGCGAACGUUCUCAACUAUGACACGCAAAACGCGUGCUCCGUUGAAUGGAGUUUAUCAUU [C96G G152U]	-2.77
GGAUCUUCUCGAUCUAACAAAAAAGACAAAUCUGCCACAAAGCUUGAGAGCAUCUUCGGAUGCAGAGGCGGCAGCCUUCGGUGGCGCGAUAGCGCGAACGUUCUCAACUAUGACACGCAAAACGCGUGCUCCGUUGAAUGGAGCUUAUCAUG [C96G U144C]	-0.123
GGAUCUUCUCGAUCUAACAAAAAAGACAAAUCUGCCACAAAGCUUGAGAGCAUCUUCGGAUGCAGAGGCGGCAGCCUUCGGUGGCGCGAUAGCGCUUACGUUCUCAACUAUGACACGCAAAACGCGUGCUCCGGUGACUGGAGUUUAUCAUG [C96U A97U U134G A138C]	≤ -4.2
GGAUCUUCUCGAUCUAACAAAAAAGACAAAUCUGCCACAAAGCUUGAGAGCAUCUUCGGAUGCAGAGGCGGCAGCCUUCGGUGGCGCGAUAGCGCUAACGUUCUCAACUAUGACACGCAAGACGCGUGCUCCGUUGAAUGGAGUUUAUCAUG [C96U A121G]	0.324
GGAUCUUCUCGAUCUAACAAAAAAGACAAAUCUGCCACAAAGCUUGAGAGCAUCUUCGGAUGCAGAGGCGGCAGCCUUCGGUGGCGCGAUAGCGCUAACGUUCUCAACUAUGACACGCAAAACGCGUGCUCCGUUGUAUGGAGUUUAUCAUG [C96U A137U]	-3.84
